Literature values in patent US20110300070A1, “BIOMOLECULE COMPLEXES AS CONTRAST AGENTS IN POSITRON EMISSION TOMOGRAPHY (PET) BASED METHODS FOR THE ASSESSMENT OF ORGAN FUNCTION” (priority 2008, published 2011).

Tested on: proximal tubular cells
Details: in vivo

Molecule | time window where the filtered amount of the tracer is still quantitatively retained in the proximal tubular cells | optimal clearance period
cytochrome C: heme protein, about 100 amino acids, about 12 kD | about 5 minutes | –
cystatin C: cysteine protease inhibitor, about 120 amino acids, about 13 kD (protein, UniProt P01034 27-146, looked up) Cystatin-C: SSPGKPPRLVGGPMDASVEEEGVRRALDFAVGEYNKASNDMYHSRALQVVRARKQIVAGVNYFLDVELGRTTCTKTQPNLDNCPFHDQPHLKRKAFCSFQIYAVPWQGTMTLSKSTCQDA | about 5 minutes | less than 5 minutes
